Measured values as given in the supplement of paper PMC9170038.

Test system: MS2 coat protein
Assay: apparent KD of MS2 coat protein; designed switch direction (-1 OFF switch, 1 ON switch): -1; higher = weaker reporter binding
Procedure, shortened: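 Three titration conditions were used: no input, 200 uM small-molecule ligand, and an oligonucleotide input. In each, SNAP-549-labelled MS2 coat protein was raised from 0.7 or 1.5 nM, doubling, to 3 µM over designed RNA switches transcribed on Illumina chips by stalled E. coli RNA polymerase. Curve fits of normalised cluster fluorescence gave values whose per-design median over clusters is the apparent KD.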

[1] = input ligand: microRNA oligo, concentration not stated
[2] = Eterna round: R95, input ligand: FMN 200 uM
[3] = Eterna round: R95, input ligand: microRNA oligo, concentration not stated
[4] = Eterna round: R95, input ligand: none

Sequence: AGGUCCUUCUGGACACAUGAGGAUCACCCAUGUGAGGUCAGCGAGGAUAUCGGUCAAUAAUGUGACGAGAAGGCGCGGACCGAU [Ex NG3 #58] (Eterna round: R96, puzzle: Exclusion NG 3)
- apparent KD of MS2 coat protein (input ligand: FMN 200 uM): 0.0316 µM
- apparent KD of MS2 coat protein [1]: 0.0148 µM
- apparent KD of MS2 coat protein (input ligand: none): 0.0191 µM

Sequence: CUGAGCUGAGGAUAUACAUGAGGAUCACCCAUGUUUUGUAGAUAGUGAAGAAGUAGAUGUAGAAGGCAGUUCGG [Mod of JL 24 - Jieux - Exclusion 3] (Eterna round: R97, puzzle: Exclusion 3)
- apparent KD of MS2 coat protein (input ligand: FMN 200 uM): 0.206 µM
- apparent KD of MS2 coat protein (input ligand: none): 0.146 µM

Sequence: CUUAAGUUAGGAUAUGCGCUACGGAAUCGUGGUUAUAGACAGCAGAAGGAACUUGAGGAUCACCCAAGUAAAUA [Inatsoce] (Eterna round: R97, puzzle: Exclusion 4)
- apparent KD of MS2 coat protein (input ligand: FMN 200 uM): 0.0892 µM
- apparent KD of MS2 coat protein (input ligand: none): 0.108 µM

Sequence: AGCGAGGCAGGAUAUACAUGAGGAUCACCCAUGUGCUUGUAUGGCGUGGAACAUCGUAGUAGAAGGGCCGCGCC [EX3 #77] (Eterna round: R97, puzzle: Exclusion 3)
- apparent KD of MS2 coat protein (input ligand: FMN 200 uM): 0.0284 µM
- apparent KD of MS2 coat protein (input ligand: none): 0.0222 µM

Sequence: CUCAAAAGUCGGUUUACACACAUGAGGAUCACCCAUGUAAGCAAACAUAUAGGCUCUACGAUUUGCUCGCUCUUAUA [Eternabot (L1) Solution 34] (Eterna round: R97, puzzle: Sensor, turn-off variant 1)
- apparent KD of MS2 coat protein (input ligand: FMN 200 uM): 0.0135 µM
- apparent KD of MS2 coat protein (input ligand: none): 0.0132 µM

Sequence: ACCUCACUUGAGGAUCACCCAAGUCAGGAUAUACUCGUUUGCCGAAAGACGCGGCAUUGUAGAAGGGACGGGUU [Raortiza] (Eterna round: R97, puzzle: Exclusion 1)
- apparent KD of MS2 coat protein (input ligand: FMN 200 uM): 0.0266 µM
- apparent KD of MS2 coat protein (input ligand: none): 0.0155 µM

Sequence: GGUGUGAGGCAGGAUAUGCAAUAAGUAAGUAAAGCAGAAGGGUCUACAUGAGGAUCACCCAUGUGUGCGGUAGA [Ex6 #1] (Eterna round: R97, puzzle: Exclusion 6)
- apparent KD of MS2 coat protein (input ligand: FMN 200 uM): 0.249 µM
- apparent KD of MS2 coat protein (input ligand: none): 0.163 µM

Sequence: UUGUUAUAUGAAGGAUAUACUUAACAUGAGGAUCACCCAUGUGGUGUUGUGAGUGAGUGAGUUUAGUAGAAGGUCAAUGAUUUU [JMF's solution 73] (Eterna round: R96, puzzle: Exclusion NG 2)
- apparent KD of MS2 coat protein (input ligand: FMN 200 uM): 0.513 µM
- apparent KD of MS2 coat protein [1]: 0.309 µM
- apparent KD of MS2 coat protein (input ligand: none): 0.344 µM

Sequence: AGUUGGCGAGGAUAUACAUGAGGAUCACCCAUGUGAGAGAAUAAAGUGAGGAAGAAAAGUAGAAGGCGCUGACG [Mat - Exclusion 3 - Mod of Salish D7] (puzzle: Exclusion 3)
- apparent KD of MS2 coat protein [2]: 0.0611 µM
- apparent KD of MS2 coat protein [3]: 0.052 µM
- apparent KD of MS2 coat protein [4]: 0.0537 µM

Sequence: AAGAGGAUCAAAGGAUAUGGAGCUGAAACGGCGCUAGAAGGUUGUCCAGUGUAACAUGAGGAUCACCCAUGUAGGGACCUCUAA [AK ExNG1-V2-3] (Eterna round: R96, puzzle: Exclusion NG 1)
- apparent KD of MS2 coat protein (input ligand: FMN 200 uM): 0.1 µM
- apparent KD of MS2 coat protein [1]: 0.0575 µM
- apparent KD of MS2 coat protein (input ligand: none): 0.0429 µM

Sequence: CCUCAGUAAGGAUAUCAGCUUAUGGAGGUGGUAAUGAGAGCUGAGAAGGUACAUGAGGAUCACCCAUGUUAGUU [JL Zatite mod 1] (puzzle: Exclusion 4)
- apparent KD of MS2 coat protein [3]: 0.0462 µM

Sequence: CGAUGCUCGAGUCGACAUGAGGAUCACCCAUGUAGAGUUAGUGAGGAUAUCGGAGACACAUAGUAUGAGAAGGCGCGAACCUGA [Ex NG3 #17] (Eterna round: R96, puzzle: Exclusion NG 3)
- apparent KD of MS2 coat protein (input ligand: FMN 200 uM): 0.0218 µM
- apparent KD of MS2 coat protein [1]: 0.0163 µM
- apparent KD of MS2 coat protein (input ligand: none): 0.0188 µM

Sequence: GAGUGAAGUGCAGGAUAUCUAGAAGGAAGAAGGAGGAAACAUGAGGAUCACCCAUGUAAUCCAUAAGAGAAGGGCGGAGAGGAG [An ugly monster] (Eterna round: R96, puzzle: Exclusion NG 2)
- apparent KD of MS2 coat protein (input ligand: FMN 200 uM): 0.0163 µM
- apparent KD of MS2 coat protein [1]: 0.0143 µM
- apparent KD of MS2 coat protein (input ligand: none): 0.0183 µM

Sequence: AAUAGUUGAGUAGGAUAUGCAUCGACCGGCCGAGCAGAAGGACUCGUGAACUUGAGGAUCACCCAAGUGUCCUCGUUUGCUUGA [Mutated MS2 EX1.16] (Eterna round: R96, puzzle: Exclusion NG 1)
- apparent KD of MS2 coat protein (input ligand: FMN 200 uM): 0.139 µM
- apparent KD of MS2 coat protein [1]: 0.125 µM
- apparent KD of MS2 coat protein (input ligand: none): 0.134 µM

Sequence: GAGAUACAUGAGGAUCACCCAUGUGAGGAUAUGAGUCAGUCACGGUGACGUGGCUGACUCAGAAGGCACAAAGG [Mat - Exclusion 1 - JL Mod - D35] (Eterna round: R97, puzzle: Exclusion 1)
- apparent KD of MS2 coat protein (input ligand: FMN 200 uM): 0.0889 µM
- apparent KD of MS2 coat protein (input ligand: none): 0.15 µM

Sequence: AGGUGACAUGAGGAUCACCCAUGUGAGGAUAUCUGGAUACUCUUUAUUUUAGAUAUCCAGAGAAGGCACACCCU [Ex1-3: 8Z] (puzzle: Exclusion 1)
- apparent KD of MS2 coat protein [3]: 0.235 µM

Sequence: CUCAUGUCAGGAUAUCUACAUUAAAUUGGUAACCAAGCAUGAGAGAAGGGACAUGAGGAUCACCCAUGUAAAAC [Cegeange] (Eterna round: R97, puzzle: Exclusion 4)
- apparent KD of MS2 coat protein (input ligand: FMN 200 uM): 0.044 µM
- apparent KD of MS2 coat protein (input ligand: none): 0.0275 µM

Sequence: AGUGCUGGCGCGUCGGUGUUGGUACAAUAAGCUUGUGAAACAUGAGGAUCACCCAUGUCCUCAUAAGCUCGUCUUAU [salish99_TOv2_r2_084] (puzzle: Sensor v3, turn-off variant 2)
- apparent KD of MS2 coat protein [2]: 0.0176 µM
- apparent KD of MS2 coat protein [3]: 0.553 µM
- apparent KD of MS2 coat protein [4]: 0.0169 µM

Sequence: UGUUGUUGAUAGGAUAUACUUGUAGGAGUUGUAGUAGAAGGAUCUACAUGAGGAUCACCCAUGUAGGAGUGAGU [JR_E6_Sub004] (puzzle: Exclusion 6)
- apparent KD of MS2 coat protein [3]: 0.0156 µM

Sequence: CGUGACUCAGGAUAUGUAUAAUAUCACAUGAGGAUCACCCAUGUCCAGCGAAAGCUGGAGGCAGAAGGGAGUCACG [Fiskers Ex 5 - 38] (puzzle: Exclusion 5)
- apparent KD of MS2 coat protein [2]: 0.0431 µM
- apparent KD of MS2 coat protein [3]: 0.0588 µM
- apparent KD of MS2 coat protein [4]: 0.0319 µM

Sequence: UAUCCACAUGAGGAUCACCCAUGUGAGGAUAUGUCCAUAUUCGGCAAAUCGGAUAUGGACAGAAGGCACACCGG [JR_Exclusion1_Sub011] (Eterna round: R96, puzzle: Exclusion 1)
- apparent KD of MS2 coat protein (input ligand: FMN 200 uM): 0.114 µM
- apparent KD of MS2 coat protein [1]: 0.0285 µM
- apparent KD of MS2 coat protein (input ligand: none): 0.0352 µM

Sequence: GCAUUGAGUGUGAGGAUAUGCUGGUCCUAAGAUCAGCAGAAGGCACAUGAGGAUCACCCAUGUGAAAACAAUGC [Mat - Exclusion 4 - JL Mod - D65] (puzzle: Brourd's mod of Exclusion 4)
- apparent KD of MS2 coat protein [2]: 0.102 µM
- apparent KD of MS2 coat protein [3]: 0.0152 µM
- apparent KD of MS2 coat protein [4]: 0.0174 µM

Sequence: GGGCCGCAAGUAAGGAUAUCCCUUAAAUUGUGAGCGGAGAAGGUACUUGAGGAUCACCCAAGUAUAGAAGAAAA [Arinbear] (Eterna round: R97, puzzle: Brourd's mod of Exclusion 4)
- apparent KD of MS2 coat protein (input ligand: FMN 200 uM): 0.0542 µM
- apparent KD of MS2 coat protein (input ligand: none): 0.0152 µM

Sequence: UCACUACCGCAAGGAUAUGUUGUCUGACACGCUGCGUGACAUGAGGAUCACCCAUGUGCUAGUUCGCAGAAGGUGCGGAAUGUG [Eternabot solution 34] (Eterna round: R96, puzzle: Exclusion NG 2)
- apparent KD of MS2 coat protein (input ligand: FMN 200 uM): 0.0632 µM
- apparent KD of MS2 coat protein [1]: 0.00998 µM
- apparent KD of MS2 coat protein (input ligand: none): 0.0171 µM

Sequence: AAAUUGUGAGGAUAUUCGAUGAACUCGGAGACGAGUUUAUCGGAGAAGGCACAUGAGGAUCACCCAUGUUCCUU [Mat - Exclusion 4 - JL Mod - D23] (Eterna round: R97, puzzle: Exclusion 4)
- apparent KD of MS2 coat protein (input ligand: FMN 200 uM): 0.102 µM
- apparent KD of MS2 coat protein (input ligand: none): 0.0185 µM
